Patent US20120021923

For prostate-specific antigen (PSA), the “Km (PSA-A buffer)” value (Ac-KGISSQY-AFC) was “the Km value is estimated to be 1.73 mM”, the “Km (PSA-B buffer)” value (Ac-KGISSQY-AFC) was “the Km value is estimated to be 0.47 mM” and the “Vmax (PSA-A buffer)” value (Ac-KGISSQY-AFC) was “the Vmax is estimated to be 3.7 RLU/sec”. For the same substance, the “Vmax (PSA-B buffer)” value (Ac-KGISSQY-AFC) was “the Vmax is estimated to be 2.33 RLU/sec”, the “turnover rate by PSA” value (Ac-KGISSQY-AFC) was “the substrate of KGISSQY has a much higher turnover rate by PSA as compared to SKLQ” and the “turnover rate by PSA” value (SKLQ-aluc) was “SKLQ on the other had appears to have a very slow turnover compared to KGISSQY and to be highly specific to PSA”.
